Data taken from US20230213527A1 (QUANTUM SI, published 2023).
Square brackets hold non-standard residues; d marks the D form. Primed or numbered codes have the meaning given here. Ends that are not written are not given here. Lys(N3) = [N-]=[N+]=NCCCC[C@H](N)C(=O)O; Met(O) = CS(=O)CC[C@H](N)C(=O)O; FITC′ = not defined here

Legend:
[1] = target: T1, RLMoFAYPDDD (SEQ ID NO: 858), state with N-terminal methionine sulfoxide (MoFAYPDDD) (also: C-terminal azidolysine conjugated to DNA-streptavidin linker); assay: single-molecule on-chip dynamic sequencing
T1 construct: residue range inferred
T1 peptide: [Met(O)]FAYPDDD[Lys(N3)]

[2] = target: T2, … (SEQ ID NO: 801), state with N-terminal methionine (MFAYPDDD) (not fully specified (C-terminus); also: C-terminal azidolysine conjugated to DNA-streptavidin linker); assay: single-molecule on-chip dynamic sequencing
T2 construct: residue range inferred from the recognized N-terminal residue
T2 peptide: MFAYPDDD

[3] = target: T3, synthetic peptide … (SEQ ID NO: 794), state with N-terminal isoleucine (IFAG) (human, not fully specified (C-terminus); also: C-terminal azidolysine conjugated to DNA-streptavidin linker); assay: single-molecule on-chip dynamic sequencing with PS610, PS961, PS691, PhTET2 and PhTET3
T3 construct: residue range inferred from the recognized N-terminal residue
T3 peptide: IFAG
Experimental: (§1) The transition from leucine to isoleucine recognition by PS961 is readily identified as a sharp change in average PD. This overall pattern is replicated across many instances of sequencing of the same peptide, with similar PD statistics across traces, as each peptide molecule follows the same reaction pathway over the course of the sequencing run (FIGS. 3B-3C).
(§2) The semiconductor chip was placed in the sequencing device and a chip check was performed to test electronic circuit function and to optimize laser coupling alignment. The chip was then removed from the device socket and the chip was washed twice with 50 μL of 70% isopropanol, followed by four washes with 30 μL of wash buffer (50 mM MOPS pH 8.0, 60 mM potassium acetate, 50 mM glucose, 20 mM magnesium acetate, and surfactant mix) through a flow cell attached to the chip. […] The laser was unblocked and the occupancy percentage (target 10-30%, Poisson distributed) was recorded by acquiring a photobleaching signal from a fluorophore attached to the peptide complex during 5 min of laser illumination. For NAA recognition-only assays, after peptide loading, labeled recognizer was added to a final concentration of 50 nM PS610, 100 nM PS691, or 250 nM PS961 (as indicated according to the experiment), and data was recorded for 10 hours. […] Data was recorded for 15 min. […] The laser was then unblocked, and data was recorded for 10 hours.

[4] = target: T4, synthetic peptide … (SEQ ID NO: 794), state with N-terminal leucine (LIFAG) (human, not fully specified (C-terminus); also: C-terminal azidolysine conjugated to DNA-streptavidin linker); assay: as above
T4 construct: residue range inferred from the recognized N-terminal residue
T4 peptide: LIFAG
Experimental: as §1, §2

[5] = target: T5, labeled peptide with N-terminal methionine (XAKLDEESILKQK-FITC, SEQ ID NO: 833, X = M); assay: fluorescence polarization titration, FITC-labeled peptide (FIG. 9D)
T5 peptide: MAKLDEESILKQK-{FITC′}
Experimental: As an example, methionine oxidation was examined. The thioether moiety of the methionine side chain is susceptible to oxidation during peptide synthesis and sequencing. […] It was determined computationally that methionine sulfoxide is highly unfavorable in the PS961 NAA binding pocket and that non-polar residues are preferred at P2 (FIG. 9E). The synthetic peptide […] (SEQ ID NO: 801) was sequenced, and two populations of traces with distinct kinetic signatures were observed—a first population containing leucine recognition with median PD of 0.86 s, and a second population with median PD of 0.35 s (FIG. 4C).
Binding affinity was measured by polarization using a labeled peptide. The polarization response and total intensity measurements were carried out at 20° C. on a microplate fluorometer with 480 nm excitation and 530 nm emission. The interaction of recognizer with labeled peptide containing a target N-terminal residue (XAKLDEESILKQK-FITC (SEQ ID NO: 833)) was performed in PBS buffer at pH 7.4 and readings were collected after 30 min. Multiple analyses were performed at increasing recognizer concentration at a fixed concentration of a target peptide to obtain a titration curve. An equilibrium polarization response at each concentration was plotted and fit to calculate the KD.

[6] = target: T6, … (SEQ ID NO: 798), state with N-terminal leucine (LAFAYPDDD) (not fully specified (C-terminus); also: C-terminal azidolysine conjugated to DNA-streptavidin linker); assay: single-molecule on-chip dynamic sequencing; recognition of N-terminal leucine
T6 construct: residue range inferred from the recognized N-terminal residue
T6 peptide: LAFAYPDDD
Experimental: (§3) To illustrate how the kinetic parameters acquired from sequencing are sensitive to changes in sequence composition, sequencing was performed with a set of three peptides […] (SEQ ID NO: 798), […] (SEQ ID NO: 799), and […] (SEQ ID NO: 800)—that differ only at a single position, located immediately downstream from the PS961 N-terminal target leucine.
(§4) The semiconductor chip was placed in the sequencing device and a chip check was performed to test electronic circuit function and to optimize laser coupling alignment. The chip was then removed from the device socket and the chip was washed twice with 50 μL of 70% isopropanol, followed by four washes with 30 μL of wash buffer (50 mM MOPS pH 8.0, 60 mM potassium acetate, 50 mM glucose, 20 mM magnesium acetate, and surfactant mix) through a flow cell attached to the chip. A second chip check was then performed. The laser was then blocked via an integrated software-controlled shutter, peptide complex was added to a final concentration of 1-10 nM and mixed thoroughly, and the chip was incubated for 15 min. The chip was then washed six times with wash buffer, followed by addition of an imaging solution (wash buffer with 5 mM Trolox and an oxygen scavenging system). The laser was unblocked and the occupancy percentage (target 10-30%, Poisson distributed) was recorded by acquiring a photobleaching signal from a fluorophore attached to the peptide complex during 5 min of laser illumination. For NAA recognition-only assays, after peptide loading, labeled recognizer was added to a final concentration of 50 nM PS610, 100 nM PS691, or 250 nM PS961 (as indicated according to the experiment), and data was recorded for 10 hours.

[7] = target: T7, … (SEQ ID NO: 800), state with N-terminal leucine (LVFAYPDDD) (not fully specified (C-terminus); also: C-terminal azidolysine conjugated to DNA-streptavidin linker); assay: as above
T7 construct: residue range inferred from the recognized N-terminal residue
T7 peptide: LVFAYPDDD
Experimental: as §3, §4

[8] = target: T8, … (SEQ ID NO: 799), state with N-terminal leucine (LIFAYPDDD) (not fully specified (C-terminus); also: C-terminal azidolysine conjugated to DNA-streptavidin linker); assay: as above
T8 construct: residue range inferred from the recognized N-terminal residue
T8 peptide: LIFAYPDDD
Experimental: as §3, §4

B1: PS961 (designed binder)
chain: MPTAASATESAIEDTPAPARPEVDGRTKPKRQPRYHVVLWDDDDHTYQYVVVMLRSLFGHPPSRGYRMAKEMDTQGRVIVLTTTREHAELKRDQIHAFGRDRLLARSKGSMKASIEAEE
notes: also called PS961 (L, I, V); PS961 (LIV)
- binding result [1]: no binding (tested: 250 nM PS961)
- binding result [2]: binds
- binding result [3]: binds
- binding result [4]: binds
- Kd [5]: 947 nM
- median pulse duration (PD) [6]: 1.29 s
- median pulse duration (PD) [7]: 4.21 s
- median pulse duration (PD) [8]: 2.22 s
